Laboratory results as given in PMC11389850.

Biological target: BbmrR (Brevibacillus borstelensis)
Assay: SEC; analytical size-exclusion chromatography, Superdex 200 10/300, 50 mM phosphate buffer, 500 mM NaCl, pH 7.5, 100 uL sample injected; column calibrated with LMW/HMW gel-filtration kits

BbmrR (natural protein)
stoichiometry N: 2
